# In paper PMC7110144 (2020):
# B1: His-CAL1(1-160) [Drosophila melanogaster] / CENP-A(101-225)-H4 [Drosophila melanogaster] (parent complex)
# chain 1: MANAVVDEETLEAMVYERSKAWSSKMADFASLEDGMEIDVAEFDNLFHGEDEDPDLDDVAKEAVEDNVPDEAKLEMGHINATSVTELTLILCANEDNEAKAEIEEILNQTVPVVEEHKRKWREAGLDRILDTFDEKQIEHHVGRWMRRHNSVYLEASPPK
# chain 2: QQESKTRAAGPVAAQNQTRRRKAANPMSRAKRMDREIRRLQHHPGTLIPKLPFSRLVREFIVKYSDDEPLRVTEGALLAMQESCEMYLTQRLADSYMLTKHRNRVTLEVRDMALMAYICDRGRQF
# chain 3: not shown
# B2: CAL1-V5 (in U2OS cells) [Drosophila melanogaster] / CENP-A-GFP-LacI (in U2OS cells) [Drosophila melanogaster] (parent complex)
# chain 1: MANAVVDEETLEAMVYERSKAWSSKMADFASLEDGMEIDVAEFDNLFHGEDEDPDLDDVAKEAVEDNVPDEAKLEMGHINATSVTELTLILCANEDNEAKAEIEEILNQTVPVVEEHKRKWREAGLDRILDTFDEKQIEHHVGRWMRRHNSVYLEASPPKYLPPHHNSISDESDESMHSIDTARYIQQSRRRNAHMTNKNMTTIKMYRKHSHKRDELRAKYAYGDEQEHRHHMQAVLLRRRERERQLAYLASTPMQCVYSSGHHMRRKNLRKRRINSWMFDSASSSEEDTSFGGCDCHSCRRHYALSRSVYQSCPYGRGQREYHHRQMASRTMHTMRRQHTFDMEMDLRPRLPENECSCCNSDRLCSNVIHIANSSTEEWVVENRSNHLTQETQEKTRKQKHQPMDARKVSHQPVCSKGHEQKPLSSKATSVSKLVLSKEKYMQMFDSESSDEDNALAKKGLLCCSDKKKGMTFPTPNAAGKITHPTSSAKKAIRKEARPNGLAQIQEEGPTATNSPIESTYLPVAHMKSVSIDGSSGTSATFESPAKKAPKRGIRETSPLNGNELQQLISTIPIADEKASSLMEKVDNCIGRESFDDRNKDFMHMENSSTKTAVEKSTKQKRVSGKKSEIPKSIITNNEILEKNSTETLSEKQVAAKAKKQSVRKTGATGKPSTSRLKKSEKTKTTSSVTSTSKLEQVREEESDVSSEVLAKPKPQCSTTASILKQGGDGASNSEDDLQIALAMSKATYKEEQQKRKKTKREPSNKQPQSPAEKSMTVFNNQSVACNSTALANDTACYRVLPKRRGVKRAAAVSTTEEKTATNSSSSPTSSLEEMGSPTGGDPDCTVVTSTTGCEPPASERQEIPATIKITKRGILLHSPSAPEGASFTLTEQGLGKIIGERWARKYLKYHIGSRSFDSRHSVYYQPTPQLAAALSAPQDAQNIGNISGSSASDDDIFEQINRYGTVYSILENNSGDK
# chain 2: MPRHSRAKRAPRPSANNSKSPNDDDTAFRSPEPEDGTDYGLEFTTSQLTLQDNNRRSSTLRRDAGRRQPAARDSSTSGEEEDQENRYPTTRSPQTRRMTVQQESKTRAAGPVAAQNQTRRRKAANPMSRAKRMDREIRRLQHHPGTLIPKLPFSRLVREFIVKYSDDEPLRVTEGALLAMQESCEMYLTQRLADSYMLTKHRNRVTLEVRDMALMAYICDRGRQF
# B3: CAL1-HA (in S2 cells) [Drosophila melanogaster] / GFP-LacI-CENP-C (in S2 cells) [Drosophila melanogaster] (parent complex)
# chain 1: B2 chain 1
# chain 2: MSKPQNNDTLELDDILSQPVKDKERFAAFMMRKLAENKPAQNDNLFGNFKLDFDLDFEVPLIKKSQAKPKSKLPEVQPLGELVSKNSAATEKVNEPPVDQAPNENVPPRRSPTLSPNNRRSMRRSGNVPGSDKLRRHAIRRRSRSCGRQLLPEFEETVNLTRSISSPVNFLPEISSTPCTEKQKEEVAKNTTRVETDKPAEKPMELSQEPEPENPLQTKVTSPARNPILAAEIEQICKERQSSFHKNVLQLDYSGRAPYSRPPTPSSPSVAGLRRTYTMEKGPAPGQLLLSPSHRYDTPSKMPVVKAKRFNQELMVPDTPERQSHDPAWQSEPQPEFVVPETQPQDLGELVQTLSRSAISPIVVINTSNSNRSVRRDAVAMKSVPTSPVTALSSPPIAPSPRRSAAASPQKSIAQLPRVEENMDAIMTDDESDEHPSTVPLNLAPSGGNTTRQRRLRSSNRARATIESQESSMRLLNLHKSVNAKKSKPRKTAIPLNKAPSAPINGEQFARELTRMSNYEILDLRKRNSLNEIYPLNGHRNHRSEKLILEEEIQRELLRRNLMDEAEGLPKQQSSDDSNEDYIPVPPKTQSLRTKSNDRSQGRGRPRSTRRDLPMTTELVNYLGLSQTLETRRKSSKDGKRCLYTKGSSDHEDNDSLSPVKLPRLSKSIQIVPPPPVSLRYSQSLQNLPCSGKFDFDNVVMAAPPDFHDSVNSDAIEIAPPPPEYVVNTRGRSTSGRKSNKNDLVLPPPGYEGGQEEEHDERPSQPRCTAKELQQSTQNGRRAMENELVPPPIEYVEEENRNNEQSRRSTKNGNLVDRNTHNAVEYCEPPEPPEYDDSDHGQASILRRSGKKLQHSKQSVQKSNKEQIIAPSYENNEDYDSDEEPIYNEEYGKEESQNKNVTRRKSDKDEMASHTLECIEGPDPNWNSSCNKQNRNHQNASKSKENDKLANRSSKSQKLSNPRQNAVGTEKSVALSNRGEECTEKSSDVMESLRVNTPTPPIDQNSDDVPSRNPSPSRTLLSDDVPSTSRAALEFLQRSQNMSKSRPPDESSADVVFKKPLAPAPRAKSKKGKSEVDKLKLAKMPVEAEELNTTGIRRSKRGQVPLQMSWCHTMDPSKFNFMSGFIEPRSKNSKTKKGNLSKAKKASATKPKPTVEKNLPDNRGPLCSSTPRISEKLPGAIPHSESLGLSTLTWEETEVQAEAEKVPKKRGRPKKAVGGVQTDTEAEPEPEPEPMISSVAPLTSDQEEPDVPDEQAPYTEAALGPVVFSTPLRDEQEEASTKLMQWLRGVGDAPPSASMSDENASVSSANELIFCQVDGIDYAFYNTKEKAMLGYMRFKPYQKRSMKQAKVHPLKLLVQFGEFNVETLAVGEEKEVHSVLRVGDMIEIDRGTRYSIQNAIDKVSVLMCIRS
# Variants of: B1
# Assay: Ni-NTA pull-down, band intensity quantification; parent: 3; read off a plot
row,Variant,response
1,"chain 1 W22A, chain 1 F29A",~0.38 ratio CENP-A101-225/H4:CAL11-160
2,chain 1 W22R,~0.7 ratio CENP-A101-225/H4:CAL11-160
3,chain 1 F43R,~1.8 ratio CENP-A101-225/H4:CAL11-160
4,"chain 1 W22R, chain 1 F29R",~0.42 ratio CENP-A101-225/H4:CAL11-160
5,chain 1 F29A,~3.2 ratio CENP-A101-225/H4:CAL11-160
6,chain 1 F29R,~2.6 ratio CENP-A101-225/H4:CAL11-160

# Variants of: B1
# Assay: Ni-NTA pull-down, band intensity quantification; parent: 4.1; read off a plot
row,Variant,response
1,"chain 2 S54Q, chain 2 M86A",~2.9 ratio CENP-A101-225/H4:CAL11-160
2,chain 2 Q90G,~2.8 ratio CENP-A101-225/H4:CAL11-160
3,chain 2 S54Q,~3.5 ratio CENP-A101-225/H4:CAL11-160
4,chain 2 M86A,~3.6 ratio CENP-A101-225/H4:CAL11-160
5,"chain 2 S54Q, chain 2 M86A, chain 2 Q90G",~0.85 ratio CENP-A101-225/H4:CAL11-160

# Variants of: B2
# Assay: LacO/LacI tethering assay in U2OS cells (fluorescence intensity of CAL1-V5 at the tethering site); parent: 1.1e+03; read off a plot
row,Variant,response [a.u.]
1,"chain 1 W22A, chain 1 F29A",~110
2,"chain 1 W22R, chain 1 F29R",~20

# Variants of: B3
# Assay: LacO/LacI tethering assay in U2OS cells (fluorescence intensity of CAL1-V5 at the tethering site); parent: 2.1e+03; read off a plot
row,Variant,response [a.u.]
1,"chain 2 L1357E, chain 2 M1407E",~490
2,chain 2 F1324R,~300

# Variants of: B3
# Assay: LacO/LacI tethering assay in Drosophila S2 cells (fluorescence intensity of CAL1-HA at the tethering site); parent: 650; read off a plot
row,Variant,response [a.u.]
1,"chain 2 L1357E, chain 2 M1407E",~60
2,chain 2 F1324R,~35

# Variants of: B3
# Assay: LacO/LacI tethering assay in U2OS cells (fluorescence intensity of CAL1-V5 at the tethering site); parent: 2.1e+03; read off a plot
# Remark: another data set of the same source
row,Variant,response [a.u.]
1,"chain 1 I900R, chain 1 K907A, chain 1 Y908A",~300

# Variants of: B3
# Assay: LacO/LacI tethering assay in Drosophila S2 cells (fluorescence intensity of CAL1-HA at the tethering site); parent: 650; read off a plot
# Remark: another data set of the same source
row,Variant,response [a.u.]
1,"chain 1 I900R, chain 1 K907A, chain 1 Y908A",~12
